Values quoted from earlier work, collected in publication PMC3514653 (Neuromodulation : journal of the International …, 2012).

Conditions: dog, in vivo; cited from earlier work

B1: BDNF: large growth factor (27 KDa); recombinant-methionyl human brain-derived neurotrophic factor (protein, UniProt P23560 19-247, looked up)
Neurotrophic factor BDNF …: APMKEANIRGQGGLAYPGVRTHGTLESVNGPKAGSRGLTSLADTFEHVIEELLDEDQKVRPNEENNKDADLYTSRVMLSSQVPLEPPLLFLLEEYKNYLDAANMSMRVRRHSDPARRGELSVCDSISEWVTAADKKTAVDMSGGTVTVLEKVPVSKGQLKQYFYETKCNPMGYTKEGCRGIDKRHWNSQCRTTQSYVRALTMDSKKRIGWRFIRIDTSCVCTLTIKRGR
modifications: N-terminal methionine
- Clearance from the CSF (half-life): 42 min
